Measured values as given in publication PMC9529347.

Biological target: SARS-CoV-1 RBD-Fc (RBD N321-P513 fused to CH2 and CH3 of mouse IgG1) (SARS-CoV-1)
Test: SPR

soluble human ACE2, truncated ectodomain (S19-D615), C-terminal 6xHIS-tag, sequence (Q9BYF1 19-615): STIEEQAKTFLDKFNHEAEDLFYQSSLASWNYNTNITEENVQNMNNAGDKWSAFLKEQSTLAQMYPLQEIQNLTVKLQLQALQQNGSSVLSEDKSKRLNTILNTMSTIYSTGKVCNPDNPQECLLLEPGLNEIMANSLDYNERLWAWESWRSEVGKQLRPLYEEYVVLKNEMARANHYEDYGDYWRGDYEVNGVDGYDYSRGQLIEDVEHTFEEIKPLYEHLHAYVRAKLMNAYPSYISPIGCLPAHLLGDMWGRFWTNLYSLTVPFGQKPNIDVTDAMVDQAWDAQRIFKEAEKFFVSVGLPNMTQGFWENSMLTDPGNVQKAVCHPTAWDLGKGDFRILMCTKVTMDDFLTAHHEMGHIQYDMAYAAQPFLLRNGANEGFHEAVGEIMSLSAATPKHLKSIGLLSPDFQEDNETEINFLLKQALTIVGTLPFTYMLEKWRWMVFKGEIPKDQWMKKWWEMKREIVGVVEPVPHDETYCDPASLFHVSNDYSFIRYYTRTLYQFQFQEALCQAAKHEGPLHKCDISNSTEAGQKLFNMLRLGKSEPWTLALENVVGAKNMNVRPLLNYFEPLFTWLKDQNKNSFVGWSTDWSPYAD

soluble human ACE2, truncated ectodomain (S19-D615), C-terminal 6xHIS-tag (from UniProt Q9BYF1 19-615) (receptor)
Kd: 385 nM
